Measurements: patent US7786083B2, “Metastin derivatives and use thereof” (Takeda Pharmaceutical Company Limited, priority 2006, dated 2010)
*1 amine or outer side, *2 acyl side, *3 side chain or, on linkers, in order; H or OH if unused. [ ]: non-standard residue; d: D form. Ser(Me) = O-methylserine, COC[C@H](N[*:1])C(=O)[*:2]; Arg(Me) = CNC(=N)NCCC[C@H](N)C(=O)O; Dap(CONH2) = NC(=O)NC[C@H](N)C(=O)O; Ala(cPr) = N[C@@H](CC1CC1)C(=O)O; Hyp = O=C(O)[C@@H]1C[C@@H](O)CN1; tBuAla = CC(C)(C)C[C@H](N)C(=O)O; Cha = N[C@@H](CC1CCCCC1)C(=O)O; Cba = N[C@@H](CC1CCC1)C(=O)O; Nle = CCCC[C@H](N)C(=O)O; Dap = NC[C@H](N)C(=O)O

Molecular target: metastin receptor (OT7T175) stably expressed on CHO/dhfr- cells (human or rat, not given)
Assay: cell-based or functional assay

Row | Specific Activity (EC50 of test compound based on EC50 of Metastin (45-54)); agonist activity, intracellular calcium ion level, FLIPR (ratio to Metastin (45-54)) | Binder
1 | 0.6 | Ac-[dY][Hyp]NT[Cha]G[Nle][Arg(Me)]W-NH2 (SMILES CCCC[C@H](NC(=O)CNC(=O)[C@H](CC1CCCCC1)NC(=O)[C@@H](NC(=O)[C@H](CC(N)=O)NC(=O)[C@@H]1C[C@@H](O)CN1C(=O)[C@@H](Cc1ccc(O)cc1)NC(C)=O)[C@@H](C)O)C(=O)N[C@@H](CCCNC(=N)NC)C(=O)N[C@@H](Cc1c[nH]c2ccccc12)C(N)=O) [des(1)-Ac-[D-Tyr2,Hyp3,Thr5,Cha6,Nle8,Arg(Me)9,Trp10]MS10]
2 | 1.1 | Ac-[dY][Hyp]NT[Cha]GLRW-NH2 (also: Gly6-Leu7 -CONH- replaced by -CH2CH2-) [des(1)-Ac-[D-Tyr2,Hyp3,Thr5,Cha6,Gly7Ψ(CH2CH2)Leu8,Trp10]MS10]
3 | 1.7 | Ac-[dY][Hyp]NT[Cha]GL[Arg(Me)]W-NH2 (also: Gly6-Leu7 -CONH- replaced by -CH2S-) [des(1)-Ac-[D-Tyr2,Hyp3,Thr5,Cha6,Gly7Ψ(CH2S)Leu8,Arg(Me)9,Trp10]MS10]
4 | 1.4 | Ac-[dY][Hyp]NT[Cha]G[tBuAla][Arg(Me)]W-NH2 (SMILES CNC(=N)NCCC[C@H](NC(=O)[C@H](CC(C)(C)C)NC(=O)CNC(=O)[C@H](CC1CCCCC1)NC(=O)[C@@H](NC(=O)[C@H](CC(N)=O)NC(=O)[C@@H]1C[C@@H](O)CN1C(=O)[C@@H](Cc1ccc(O)cc1)NC(C)=O)[C@@H](C)O)C(=O)N[C@@H](Cc1c[nH]c2ccccc12)C(N)=O) [des(1)-Ac-[D-Tyr2,Hyp3,Thr5,Cha6,Leu(Me)8,Arg(Me)9,Trp10]MS10]
5 | 0.5 | Ac-[dY][Hyp]NT[Cha]G[Cba][Arg(Me)]W-NH2 (SMILES CNC(=N)NCCC[C@H](NC(=O)[C@H](CC1CCC1)NC(=O)CNC(=O)[C@H](CC1CCCCC1)NC(=O)[C@@H](NC(=O)[C@H](CC(N)=O)NC(=O)[C@@H]1C[C@@H](O)CN1C(=O)[C@@H](Cc1ccc(O)cc1)NC(C)=O)[C@@H](C)O)C(=O)N[C@@H](Cc1c[nH]c2ccccc12)C(N)=O) [des(1)-Ac-[D-Tyr2,Hyp3,Thr5,Cha6,Ala(cBu)8,Arg(Me)9,Trp10]MS10]
6 | 0.5 | Ac-[dY][Hyp]NT[Cha]G[Ala(cPr)]RW-NH2 (SMILES CC(=O)N[C@H](Cc1ccc(O)cc1)C(=O)N1C[C@H](O)C[C@H]1C(=O)N[C@@H](CC(N)=O)C(=O)N[C@H](C(=O)N[C@@H](CC1CCCCC1)C(=O)NCC(=O)N[C@@H](CC1CC1)C(=O)N[C@@H](CCCNC(=N)N)C(=O)N[C@@H](Cc1c[nH]c2ccccc12)C(N)=O)[C@@H](C)O) [des(1)-Ac-[D-Tyr2,Hyp3,Thr5,Cha6,Ala(cPr)8,Trp10]MS10]
7 | 3.5 | Ac-[dY][Hyp]NT[Cha]G[Cha][Arg(Me)]W-NH2 (SMILES CNC(=N)NCCC[C@H](NC(=O)[C@H](CC1CCCCC1)NC(=O)CNC(=O)[C@H](CC1CCCCC1)NC(=O)[C@@H](NC(=O)[C@H](CC(N)=O)NC(=O)[C@@H]1C[C@@H](O)CN1C(=O)[C@@H](Cc1ccc(O)cc1)NC(C)=O)[C@@H](C)O)C(=O)N[C@@H](Cc1c[nH]c2ccccc12)C(N)=O) [des(1)-Ac-[D-Tyr2,Hyp3,Thr5,Cha6,8,Arg(Me)9,Trp10]MS10]
8 | 0.7 | Ac-[dY][Hyp]NTFGL[Arg(Me)]W-NH2 (also: Phe5-Gly6 amide bond replaced by -CH2S-) [des(1)-Ac-[D-Tyr2,Hyp3,Thr5,Phe6Ψ(CH2S)Gly7,Arg(Me)9,Trp10]MS10]
9 | 1.2 | Ac-[dY][Hyp]NTF[Ser(Me)]L[Arg(Me)]W-NH2 [des(1)-Ac-[D-Tyr2,Hyp3,Thr5,Ser(Me)7,Arg(Me)9,Trp10]MS10]

Continued, binder first:

Row | Binder | Specific Activity (EC50 of test compound based on EC50 of Metastin (45-54)); agonist activity, intracellular calcium ion level, FLIPR (ratio to Metastin (45-54))
10 | Ac-[dY][Hyp][Dap(CONH2)]T[Cha]GLRW-NH2 (also: Gly6-Leu7 -CONH- replaced by -CH2CH2-) [des(1)-Ac-[D-Tyr2,Hyp3,Alb4,Thr5,Cha6,Gly7Ψ(CH2CH2)Leu8,Trp10]MS10] | 1.3
11 | Ac-[dY][Hyp]NT[Cba]G[Ala(cPr)][Arg(Me)]W-NH2 [des(1)-Ac-[D-Tyr2,Hyp3,Thr5,Ala(cBu)6,Ala(cPr)8,Arg(Me)9,Trp10]MS10] | 0.7
12 | Ac-[dY][Hyp][Dap(CONH2)]A[Cha]G[Ala(cPr)][Arg(Me)]W-NH2 [des(1)-Ac-[D-Tyr2,Hyp3,Alb4,Ala5,Cha6,Ala(cPr)8,Arg(Me)9,Trp10]MS10] | 0.5
13 | Ac-[dY][Hyp][Dap(CONH2)][Dap][Cha]G[Ala(cPr)][Arg(Me)]W-NH2 [des(1)-Ac-[D-Tyr2,Hyp3,Alb4,Dap5,Cha6,Ala(cPr)8,Arg(Me)9,Trp10]MS10] | 0.7
14 | Ac-[dY][Hyp][Dap(CONH2)]G[Cha]G[Ala(cPr)][Arg(Me)]W-NH2 [des(1)-Ac-[D-Tyr2,Hyp3,Alb4,Gly5,Cha6,Ala(cPr)8,Arg(Me)9,Trp10]MS10] | 0.7
15 | Ac-[dY][Hyp][Dap(CONH2)]T[Cha]G[Ala(cPr)][Arg(Me)]W-NH2 [des(1)-Ac-[D-Tyr2,Hyp3,Alb4,Thr5,Cha6,Ala(cPr)8,Arg(Me)9,Trp10]MS10] | 0.5
16 | Ac-[dY][Hyp][Dap(CONH2)]S[Cha]G[Ala(cPr)][Arg(Me)]W-NH2 [des(1)-Ac-[D-Tyr2,Hyp3,Alb4,Ser5,Cha6,Ala(cPr)8,Arg(Me)9,Trp10]MS10] | 0.5
17 | Ac-[dY]ENT[Cha]G[Ala(cPr)]RW-NH2 (SMILES CC(=O)N[C@H](Cc1ccc(O)cc1)C(=O)N[C@@H](CCC(=O)O)C(=O)N[C@@H](CC(N)=O)C(=O)N[C@H](C(=O)N[C@@H](CC1CCCCC1)C(=O)NCC(=O)N[C@@H](CC1CC1)C(=O)N[C@@H](CCCNC(=N)N)C(=O)N[C@@H](Cc1c[nH]c2ccccc12)C(N)=O)[C@@H](C)O) [des(1)-Ac-[D-Tyr2,Glu3,Thr5,Cha6,Ala(cPr)8,Trp10]MS10] | 0.4
18 | Ac-[dY][Hyp][Dap(CONH2)]T[Cha]GL[Arg(Me)]W-NH2 (also: Gly6-Leu7 -CONH- replaced by -CH2CH2-) [des(1)-Ac-[D-Tyr2,Hyp3,Alb4,Thr5,Cha6,Gly7Ψ(CH2CH2)Leu8,Arg(Me)9,Trp10]MS10] | 1.1
